Data reported in US20060140858A1, “Drug pre-targeting by means of bi-specific antibodies and hapten constructs comprising a carrier peptide and the active agent(s)” (Immunomedics, Inc., priority 2002, published 2006).
Marks after values point to notes of the source that are not given here.

Tests used:
[1] = In-vitro stability of In/In-111 IMP 224, reverse phase HPLC; type: physicochemical
Protocol: Aliquots (0.15 mL, 370 μCi) were withdrawn and mixed with 0.9 mL 0.5 M citrate buffer pH 4.0, 0.9mL 0.5 M citrate buffer pH 5.0, and 0.9 mL 0.5 M phosphate buffer pH 7.5. The stability of the labeled peptide was followed by reverse phase HPLC. HPLC Conditions: Waters Radial-Pak C-18 Nova-Pak 8×100 mm, Flow Rate 3 mL/min, Gradient: 100% A=0.3.% NH4OAc to 100% B=90% CH3CN, 0.3% NH4OAc over 10 min.

[2] = Biodistribution of In-111 IMP 224 in BALB/c mice; type: in vivo
Protocol: Kits were reconstituted with 400 μCi In-111 in 0.5 mL water.

COc1cccc2c1C(=O)c1c(O)c3c(c(O)c1C2=O)C[C@@](O)(C(CO)=NNc1ccc(C(=O)N[C@@H](CCCCNC(=O)CN(CCN(CCN(CC(=O)O)CC(=O)O)CC(=O)O)CC(=O)O)C(=O)N[C@@H](Cc2ccc(O)cc2)C(=O)N[C@@H](CCCCNC(=O)CN(CCN(CCN(CC(=O)O)CC(=O)O)CC(=O)O)CC(=O)O)C(N)=O)cc1)C[C@@H]3O[C@H]1C[C@H](N)[C@H](O)[C@H](C)O1 [IMP 224, Dox = N—NH—C6H4—CO-Lys(DTPA)-Tyr-Lys(DTPA)-NH2]
Intact Peptide ([1]; Kit, time cell empty (first line)): 00 | Intact Peptide ([1]; Kit, time printed '1 hr'): 9 | Intact Peptide ([1]; pH 4.0, time printed '4 min'): 00 | Intact Peptide ([1]; pH 4.0, time printed '9 hr'): 5 | Intact Peptide ([1]; pH 4.0, time printed 'hr', some peptide decomposed but not included in peak areas): 00* | Intact Peptide ([1]; pH 5.0, time printed '0 min'): 00 | Intact Peptide ([1]; pH 5.0, time printed '0 hr'): 1 | Intact Peptide ([1]; pH 5.0, time printed 'hr', some peptide decomposed but not included in peak areas): 00* | Intact Peptide ([1]; pH 7.5, time printed '0 hr'): 0 | Intact Peptide ([1]; pH 7.5, time printed '.5 hr' (first line)): 00 | Intact Peptide ([1]; pH 7.5, time printed '.5 hr' (second line)): 4 | tissue uptake at 0.5 h ([2]; BALB/c, mouse, 20 uCi, total radioactivity, Blood, 30 min): 1.44 ± 0.28 %ID/g | tissue uptake at 1 h ([2]; BALB/c, mouse, 20 uCi, total radioactivity, Blood): 0.54 ± 0.12 %ID/g | tissue uptake at 2 h ([2]; BALB/c, mouse, 20 uCi, total radioactivity, Blood, 2 hr): 0.12 ± 0.01 %ID/g | tissue uptake at 4 h ([2]; BALB/c, mouse, 20 uCi, total radioactivity, Blood, 4 hr): 0.1 ± 0.01 %ID/g | tissue uptake at 24 h ([2]; BALB/c, mouse, 20 uCi, total radioactivity, Blood, 24 hr): 0.02 %ID/g | tissue uptake at 0.5 h ([2]; BALB/c, mouse, 20 uCi, total radioactivity, Kidney, 30 min): 8.45 ± 1.79 %ID/g | tissue uptake at 1 h ([2]; BALB/c, mouse, 20 uCi, total radioactivity, Kidney): 5.36 ± 1.01 %ID/g | tissue uptake at 2 h ([2]; BALB/c, mouse, 20 uCi, total radioactivity, Kidney, 2 hr): 3.75 ± 0.52 %ID/g | tissue uptake at 4 h ([2]; BALB/c, mouse, 20 uCi, total radioactivity, Kidney, 4 hr): 4.03 ± 0.45 %ID/g | tissue uptake at 24 h ([2]; BALB/c, mouse, 20 uCi, total radioactivity, Kidney, 24 hr): 2.12 ± 0.17 %ID/g | tissue uptake at 0.5 h ([2]; BALB/c, mouse, 20 uCi, total radioactivity, Liver, 30 min): 0.57 ± 0.04 %ID/g | tissue uptake at 1 h ([2]; BALB/c, mouse, 20 uCi, total radioactivity, Liver): 0.31 ± 0.03 %ID/g | tissue uptake at 2 h ([2]; BALB/c, mouse, 20 uCi, total radioactivity, Liver, 2 hr): 0.17 ± 0.03 %ID/g | tissue uptake at 4 h ([2]; BALB/c, mouse, 20 uCi, total radioactivity, Liver, 4 hr): 0.17 ± 0.01 %ID/g | tissue uptake at 24 h ([2]; BALB/c, mouse, 20 uCi, total radioactivity, Liver, 24 hr): 0.13 ± 0.02 %ID/g | tissue uptake at 0.5 h ([2]; BALB/c, mouse, 20 uCi, total radioactivity, Lungs, 30 min): 1.61 ± 0.34 %ID/g | tissue uptake at 1 h ([2]; BALB/c, mouse, 20 uCi, total radioactivity, Lungs): 0.99 ± 0.26 %ID/g | tissue uptake at 2 h ([2]; BALB/c, mouse, 20 uCi, total radioactivity, Lungs, 2 hr): 0.25 ± 0.02 %ID/g | tissue uptake at 4 h ([2]; BALB/c, mouse, 20 uCi, total radioactivity, Lungs, 4 hr): 0.17 ± 0.02 %ID/g | tissue uptake at 24 h ([2]; BALB/c, mouse, 20 uCi, total radioactivity, Lungs, 24 hr): 0.09 ± 0.02 %ID/g | tissue uptake at 0.5 h ([2]; BALB/c, mouse, 20 uCi, total radioactivity, Muscle, 30 min): 0.51 ± 0.19 %ID/g | tissue uptake at 1 h ([2]; BALB/c, mouse, 20 uCi, total radioactivity, Muscle): 0.21 ± 0.08 %ID/g | tissue uptake at 2 h ([2]; BALB/c, mouse, 20 uCi, total radioactivity, Muscle, 2 hr): 0.03 ± 0.02 %ID/g | tissue uptake at 4 h ([2]; BALB/c, mouse, 20 uCi, total radioactivity, Muscle, 4 hr): 0.02 %ID/g | tissue uptake at 24 h ([2]; BALB/c, mouse, 20 uCi, total radioactivity, Muscle, 24 hr): 0.01 %ID/g | tissue uptake at 0.5 h ([2]; BALB/c, mouse, 20 uCi, total radioactivity, Spleen, 30 min): 0.57 ± 0.18 %ID/g | tissue uptake at 1 h ([2]; BALB/c, mouse, 20 uCi, total radioactivity, Spleen): 0.27 ± 0.06 %ID/g | tissue uptake at 2 h ([2]; BALB/c, mouse, 20 uCi, total radioactivity, Spleen, 2 hr): 0.12 ± 0.01 %ID/g | tissue uptake at 4 h ([2]; BALB/c, mouse, 20 uCi, total radioactivity, Spleen, 4 hr): 0.11 ± 0.01 %ID/g | tissue uptake at 24 h ([2]; BALB/c, mouse, 20 uCi, total radioactivity, Spleen, 24 hr): 0.07 %ID/g | tissue uptake at 0.5 h ([2]; BALB/c, mouse, 20 uCi, total radioactivity, Stomach, 30 min): 0.61 ± 0.07 %ID/g | tissue uptake at 1 h ([2]; BALB/c, mouse, 20 uCi, total radioactivity, Stomach): 0.15 ± 0.07 %ID/g | tissue uptake at 2 h ([2]; BALB/c, mouse, 20 uCi, total radioactivity, Stomach, 2 hr): 0.05 ± 0.01 %ID/g | tissue uptake at 4 h ([2]; BALB/c, mouse, 20 uCi, total radioactivity, Stomach, 4 hr): 0.06 ± 0.02 %ID/g | tissue uptake at 24 h ([2]; BALB/c, mouse, 20 uCi, total radioactivity, Stomach, 24 hr): 0.04 ± 0.02 %ID/g | tissue uptake at 0.5 h ([2]; BALB/c, mouse, 20 uCi, total radioactivity, Tail, 30 min): 3.66 ± 0.43 %ID/g | tissue uptake at 1 h ([2]; BALB/c, mouse, 20 uCi, total radioactivity, Tail): 1.9 ± 0.09 %ID/g | tissue uptake at 2 h ([2]; BALB/c, mouse, 20 uCi, total radioactivity, Tail, 2 hr): 0.46 ± 0.09 %ID/g | tissue uptake at 4 h ([2]; BALB/c, mouse, 20 uCi, total radioactivity, Tail, 4 hr): 0.24 ± 0.03 %ID/g | tissue uptake at 24 h ([2]; BALB/c, mouse, 20 uCi, total radioactivity, Tail, 24 hr): 0.58 ± 0.22 %ID/g | excreta dose per gram or mL at 2 h ([2]; BALB/c, mouse, 20 uCi, total radioactivity, Urine, 2 hr): 19.1 %ID/g | excreta dose per gram or mL at 4 h ([2]; BALB/c, mouse, 20 uCi, total radioactivity, Urine, 4 hr): 1.72 ± 0.67 %ID/g | excreta dose per gram or mL at 24 h ([2]; BALB/c, mouse, 20 uCi, total radioactivity, Urine, 24 hr): 0.42 ± 0.18 %ID/g | tissue uptake at 0.5 h ([2]; BALB/c, mouse, large intestine, 20 uCi, total radioactivity, Large Int., 30 min): 0.59 ± 0.43 %ID/g | tissue uptake at 1 h ([2]; BALB/c, mouse, large intestine, 20 uCi, total radioactivity, Large Int.): 0.18 ± 0.04 %ID/g | tissue uptake at 2 h ([2]; BALB/c, mouse, large intestine, 20 uCi, total radioactivity, Large Int., 2 hr): 0.38 ± 0.15 %ID/g | tissue uptake at 4 h ([2]; BALB/c, mouse, large intestine, 20 uCi, total radioactivity, Large Int., 4 hr): 0.3 ± 0.06 %ID/g | tissue uptake at 24 h ([2]; BALB/c, mouse, large intestine, 20 uCi, total radioactivity, Large Int., 24 hr): 0.08 ± 0.03 %ID/g | tissue uptake at 0.5 h ([2]; BALB/c, mouse, small intestine, 20 uCi, total radioactivity, Small Int., 30 min): 0.72 ± 0.08 %ID/g | tissue uptake at 1 h ([2]; BALB/c, mouse, small intestine, 20 uCi, total radioactivity, Small Int.): 0.37 ± 0.19 %ID/g | tissue uptake at 2 h ([2]; BALB/c, mouse, small intestine, 20 uCi, total radioactivity, Small Int., 2 hr): 0.09 ± 0.01 %ID/g | tissue uptake at 4 h ([2]; BALB/c, mouse, small intestine, 20 uCi, total radioactivity, Small Int., 4 hr): 0.09 ± 0.03 %ID/g | tissue uptake at 24 h ([2]; BALB/c, mouse, small intestine, 20 uCi, total radioactivity, Small Int., 24 hr): 0.05 ± 0.01 %ID/g | % ID/g ([2]; Urine, 30 min): 1553 % ID/g
